The results in this text go back to publication PMC10833071.

For series [1], the target named is T1, His6-Fur (UniProt Q66DC2 1-148). Kind of series: EMSA; 5 mM MgCl2, 50 ng poly(dI-dC); […] (pH not stated); ITC: PBS, 25 C. The following applies: protein: recombinant; tags: His6; chain copies: 2; label: 5' biotin (BioT6SS-1pF); blunt. A general note: In EMSA bound probe runs differently from free probe, usually more slowly.
Series [2] addresses T1, His6-Fur. Kind of series: competition; […] (pH not stated); ITC: PBS, 25 C. The settings on record: protein: recombinant; tags: His6; chain copies: 2; blunt.

B1: BioT6SS1-p (dsDNA)
DNA 1: TATCGCAATAAAAATGCCACTCATGTTTTAATATA
DNA 2: TATATTAAAACATGAGTGGCATTTTTATTGCGATA
Consider B1, for which the binding result in the series with His6-Fur [1] is “binds”.

B2: T6SS1-p (unlabeled) (dsDNA)
DNA 1: TATCGCAATAAAAATGCCACTCATGTTTTAATATA
DNA 2: TATATTAAAACATGAGTGGCATTTTTATTGCGATA
For the molecule B2, in the series with His6-Fur [2], the binding result is on record as “binds”.
